Experimental data taken from patent US20140072613A1, “Compositions and Methods for Treating Cutaneous Scarring” (priority 2012, published 2014).

Columns and labels:
Assay in all cases: biochemical
Assay type in all cases: biochemical
266 human kinases [1] = molecular target: 266 human kinases (Homo sapiens, UniProt P17948); settings: Flt1(h); 100 μM
Procedure, shortened: (§1)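 Radiometric filter-binding format: a positively charged substrate takes up radiolabelled phosphate from ATP unless the kinase is inhibited, then is captured on a negatively charged filter membrane. Counts from scintillation are expressed relative to a 100% activity control.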

266 human kinases [2] = molecular target: 266 human kinases (Homo sapiens, UniProt Q07912); settings: ACK1(h); 100 μM
Chain of 266 human kinases (Homo sapiens, UniProt Q07912) (Q07912 whole entry): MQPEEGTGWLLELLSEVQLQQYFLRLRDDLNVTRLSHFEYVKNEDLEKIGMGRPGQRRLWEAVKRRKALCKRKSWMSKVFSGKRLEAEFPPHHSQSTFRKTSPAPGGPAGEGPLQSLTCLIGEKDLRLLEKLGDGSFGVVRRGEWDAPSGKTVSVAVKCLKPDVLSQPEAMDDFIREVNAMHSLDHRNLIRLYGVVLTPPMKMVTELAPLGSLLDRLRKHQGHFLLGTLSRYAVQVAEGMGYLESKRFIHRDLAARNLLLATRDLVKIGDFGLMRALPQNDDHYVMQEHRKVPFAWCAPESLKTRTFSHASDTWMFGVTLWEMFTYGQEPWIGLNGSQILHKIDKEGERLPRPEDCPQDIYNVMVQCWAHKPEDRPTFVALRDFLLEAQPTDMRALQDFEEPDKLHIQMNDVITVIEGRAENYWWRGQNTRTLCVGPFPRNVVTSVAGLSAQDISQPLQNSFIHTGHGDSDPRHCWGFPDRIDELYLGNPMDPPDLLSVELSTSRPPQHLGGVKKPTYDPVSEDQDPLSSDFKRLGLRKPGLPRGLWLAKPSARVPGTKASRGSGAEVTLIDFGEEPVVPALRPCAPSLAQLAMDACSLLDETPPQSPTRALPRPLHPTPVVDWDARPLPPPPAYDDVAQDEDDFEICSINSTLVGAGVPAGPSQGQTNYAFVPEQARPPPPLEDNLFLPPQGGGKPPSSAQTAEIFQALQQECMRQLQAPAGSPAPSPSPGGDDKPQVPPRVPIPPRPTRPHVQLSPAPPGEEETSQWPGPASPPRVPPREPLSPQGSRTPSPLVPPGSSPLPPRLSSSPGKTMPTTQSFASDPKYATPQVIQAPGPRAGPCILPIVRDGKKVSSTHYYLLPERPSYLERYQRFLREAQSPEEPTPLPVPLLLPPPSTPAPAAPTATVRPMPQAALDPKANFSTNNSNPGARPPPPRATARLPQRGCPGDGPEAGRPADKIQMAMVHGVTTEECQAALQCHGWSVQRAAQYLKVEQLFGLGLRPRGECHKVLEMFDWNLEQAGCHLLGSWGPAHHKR
Procedure, shortened: as §1

266 human kinases [3] = molecular target: 266 human kinases (Homo sapiens, UniProt P35968); settings: KDR(h); 100 μM
Procedure, shortened: as §1

266 human kinases [4] = molecular target: 266 human kinases (Homo sapiens, UniProt P68400); settings: CK2(h); 100 μM
Chain of 266 human kinases (Homo sapiens, UniProt P68400) (P68400 whole entry): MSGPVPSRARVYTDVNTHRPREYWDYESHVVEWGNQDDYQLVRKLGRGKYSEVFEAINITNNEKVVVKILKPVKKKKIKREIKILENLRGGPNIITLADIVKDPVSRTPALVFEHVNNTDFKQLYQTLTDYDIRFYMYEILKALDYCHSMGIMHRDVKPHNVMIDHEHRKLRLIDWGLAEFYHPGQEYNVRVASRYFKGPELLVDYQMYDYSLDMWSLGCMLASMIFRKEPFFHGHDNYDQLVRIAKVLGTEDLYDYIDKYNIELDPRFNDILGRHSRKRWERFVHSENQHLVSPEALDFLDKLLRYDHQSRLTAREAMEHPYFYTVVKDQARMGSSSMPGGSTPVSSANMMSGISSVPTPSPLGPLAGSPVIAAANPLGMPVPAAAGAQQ
Procedure, shortened: as §1

266 human kinases [5] = molecular target: 266 human kinases (Homo sapiens, UniProt Q04912); settings: Ron(h); 100 μM
Procedure, shortened: as §1

266 human kinases [6] = molecular target: 266 human kinases (Homo sapiens, UniProt O75116); settings: ROCK-II(h); 100 μM
Procedure, shortened: as §1

266 human kinases [7] = molecular target: 266 human kinases (Homo sapiens, UniProt P17252); settings: PKCα(h); 100 μM
Procedure, shortened: as §1

266 human kinases [8] = molecular target: T1, 266 human kinases (Homo sapiens, UniProt Q9BXA7); settings: TSSK1(h); 100 μM
T1 sequence (Q9BXA7 1-367): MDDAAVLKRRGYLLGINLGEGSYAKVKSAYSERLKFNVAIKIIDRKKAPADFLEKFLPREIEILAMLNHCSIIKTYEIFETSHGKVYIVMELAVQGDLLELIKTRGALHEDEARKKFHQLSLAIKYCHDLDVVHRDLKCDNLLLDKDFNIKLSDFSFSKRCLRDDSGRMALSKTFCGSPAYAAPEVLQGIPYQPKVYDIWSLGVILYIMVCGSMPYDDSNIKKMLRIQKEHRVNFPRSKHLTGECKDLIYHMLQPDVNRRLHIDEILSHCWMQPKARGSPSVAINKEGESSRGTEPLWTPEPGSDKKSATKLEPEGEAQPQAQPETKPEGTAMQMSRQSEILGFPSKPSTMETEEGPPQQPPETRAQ
Procedure, shortened: as §1

266 human kinases [9] = molecular target: 266 human kinases (Homo sapiens, UniProt Q16566); settings: CaMKIV(h); 100 μM
Chain of 266 human kinases (Homo sapiens, UniProt Q16566) (Q16566 whole entry): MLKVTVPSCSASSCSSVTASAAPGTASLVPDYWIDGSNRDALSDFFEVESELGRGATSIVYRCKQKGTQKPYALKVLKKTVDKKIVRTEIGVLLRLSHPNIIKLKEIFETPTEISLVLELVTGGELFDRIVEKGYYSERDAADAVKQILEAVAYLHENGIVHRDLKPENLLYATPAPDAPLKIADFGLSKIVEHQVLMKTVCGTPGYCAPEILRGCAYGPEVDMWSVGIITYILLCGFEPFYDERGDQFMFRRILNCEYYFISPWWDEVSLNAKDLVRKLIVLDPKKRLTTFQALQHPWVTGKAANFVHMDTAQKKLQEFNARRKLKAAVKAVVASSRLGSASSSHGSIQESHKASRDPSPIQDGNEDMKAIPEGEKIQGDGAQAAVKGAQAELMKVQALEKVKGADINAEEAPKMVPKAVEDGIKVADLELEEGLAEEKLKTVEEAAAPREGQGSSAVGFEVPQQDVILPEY
Procedure, shortened: as §1

266 human kinases [10] = molecular target: 266 human kinases (Homo sapiens, UniProt Q00534); settings: CDK6/cyclinD3(h); 100 μM
Chain of 266 human kinases (Homo sapiens, UniProt Q00534) (Q00534 whole entry): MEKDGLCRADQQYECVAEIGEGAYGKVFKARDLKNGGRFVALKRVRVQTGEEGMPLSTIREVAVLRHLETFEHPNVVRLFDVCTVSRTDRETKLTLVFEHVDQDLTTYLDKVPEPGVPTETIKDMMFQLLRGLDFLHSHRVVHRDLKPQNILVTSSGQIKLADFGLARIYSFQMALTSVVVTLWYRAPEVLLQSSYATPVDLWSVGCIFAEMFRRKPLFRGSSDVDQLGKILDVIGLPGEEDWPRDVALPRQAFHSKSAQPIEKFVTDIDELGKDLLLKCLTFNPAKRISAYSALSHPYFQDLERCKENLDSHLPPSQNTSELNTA
Procedure, shortened: as §1

266 human kinases [11] = molecular target: T2, 266 human kinases (Homo sapiens, UniProt Q8TF76); settings: Haspin(h); 100 μM
T2 sequence (Q8TF76 1-798): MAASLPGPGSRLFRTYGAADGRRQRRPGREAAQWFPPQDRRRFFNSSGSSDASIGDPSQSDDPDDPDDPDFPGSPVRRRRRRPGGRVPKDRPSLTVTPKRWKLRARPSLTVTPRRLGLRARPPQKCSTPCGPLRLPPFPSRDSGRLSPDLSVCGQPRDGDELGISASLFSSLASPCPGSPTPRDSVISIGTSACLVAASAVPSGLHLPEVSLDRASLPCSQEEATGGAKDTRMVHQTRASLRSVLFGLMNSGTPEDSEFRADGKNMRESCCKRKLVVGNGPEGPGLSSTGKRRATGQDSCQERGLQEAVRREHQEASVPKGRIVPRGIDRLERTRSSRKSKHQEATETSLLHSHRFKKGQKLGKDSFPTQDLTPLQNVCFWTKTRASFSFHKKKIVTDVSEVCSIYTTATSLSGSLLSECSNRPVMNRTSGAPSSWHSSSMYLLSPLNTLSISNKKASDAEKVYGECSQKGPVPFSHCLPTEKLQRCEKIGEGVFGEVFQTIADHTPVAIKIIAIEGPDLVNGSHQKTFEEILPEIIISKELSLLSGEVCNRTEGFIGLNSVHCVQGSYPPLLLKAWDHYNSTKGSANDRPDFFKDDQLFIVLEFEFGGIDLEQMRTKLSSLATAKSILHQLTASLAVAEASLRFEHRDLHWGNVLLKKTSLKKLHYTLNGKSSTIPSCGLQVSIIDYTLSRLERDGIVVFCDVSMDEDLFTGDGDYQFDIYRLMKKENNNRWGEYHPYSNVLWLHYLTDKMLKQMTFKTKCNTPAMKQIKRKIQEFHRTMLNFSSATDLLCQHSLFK
Procedure, shortened: as §1

266 human kinases [12] = molecular target: 266 human kinases (Homo sapiens, UniProt P08069); settings: IGF-1R(h), 100 μM
Procedure, shortened: as §1

266 human kinases [13] = molecular target: 266 human kinases (Homo sapiens, UniProt Q13554); settings: CaMKIIβ(h); 100 μM
Chain of 266 human kinases (Homo sapiens, UniProt Q13554) (Q13554 whole entry): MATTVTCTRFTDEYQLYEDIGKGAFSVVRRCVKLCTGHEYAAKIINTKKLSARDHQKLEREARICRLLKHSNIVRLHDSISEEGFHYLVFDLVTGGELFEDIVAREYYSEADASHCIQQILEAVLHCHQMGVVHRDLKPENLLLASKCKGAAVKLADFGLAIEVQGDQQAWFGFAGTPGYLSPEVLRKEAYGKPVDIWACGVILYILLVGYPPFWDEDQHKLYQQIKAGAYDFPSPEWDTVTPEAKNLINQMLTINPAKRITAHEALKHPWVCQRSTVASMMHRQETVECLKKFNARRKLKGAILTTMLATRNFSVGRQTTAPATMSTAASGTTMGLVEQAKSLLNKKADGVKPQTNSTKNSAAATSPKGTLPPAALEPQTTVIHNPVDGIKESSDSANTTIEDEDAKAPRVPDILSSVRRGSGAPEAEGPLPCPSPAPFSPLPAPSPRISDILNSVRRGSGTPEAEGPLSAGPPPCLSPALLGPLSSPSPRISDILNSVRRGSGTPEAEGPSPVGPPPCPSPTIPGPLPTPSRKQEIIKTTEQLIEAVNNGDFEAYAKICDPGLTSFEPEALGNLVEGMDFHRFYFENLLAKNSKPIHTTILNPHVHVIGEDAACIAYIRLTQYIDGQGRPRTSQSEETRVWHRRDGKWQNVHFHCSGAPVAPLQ
Procedure, shortened: as §1

Chain of 266 human kinases (Homo sapiens, UniProt P17948) (P17948 27-1338): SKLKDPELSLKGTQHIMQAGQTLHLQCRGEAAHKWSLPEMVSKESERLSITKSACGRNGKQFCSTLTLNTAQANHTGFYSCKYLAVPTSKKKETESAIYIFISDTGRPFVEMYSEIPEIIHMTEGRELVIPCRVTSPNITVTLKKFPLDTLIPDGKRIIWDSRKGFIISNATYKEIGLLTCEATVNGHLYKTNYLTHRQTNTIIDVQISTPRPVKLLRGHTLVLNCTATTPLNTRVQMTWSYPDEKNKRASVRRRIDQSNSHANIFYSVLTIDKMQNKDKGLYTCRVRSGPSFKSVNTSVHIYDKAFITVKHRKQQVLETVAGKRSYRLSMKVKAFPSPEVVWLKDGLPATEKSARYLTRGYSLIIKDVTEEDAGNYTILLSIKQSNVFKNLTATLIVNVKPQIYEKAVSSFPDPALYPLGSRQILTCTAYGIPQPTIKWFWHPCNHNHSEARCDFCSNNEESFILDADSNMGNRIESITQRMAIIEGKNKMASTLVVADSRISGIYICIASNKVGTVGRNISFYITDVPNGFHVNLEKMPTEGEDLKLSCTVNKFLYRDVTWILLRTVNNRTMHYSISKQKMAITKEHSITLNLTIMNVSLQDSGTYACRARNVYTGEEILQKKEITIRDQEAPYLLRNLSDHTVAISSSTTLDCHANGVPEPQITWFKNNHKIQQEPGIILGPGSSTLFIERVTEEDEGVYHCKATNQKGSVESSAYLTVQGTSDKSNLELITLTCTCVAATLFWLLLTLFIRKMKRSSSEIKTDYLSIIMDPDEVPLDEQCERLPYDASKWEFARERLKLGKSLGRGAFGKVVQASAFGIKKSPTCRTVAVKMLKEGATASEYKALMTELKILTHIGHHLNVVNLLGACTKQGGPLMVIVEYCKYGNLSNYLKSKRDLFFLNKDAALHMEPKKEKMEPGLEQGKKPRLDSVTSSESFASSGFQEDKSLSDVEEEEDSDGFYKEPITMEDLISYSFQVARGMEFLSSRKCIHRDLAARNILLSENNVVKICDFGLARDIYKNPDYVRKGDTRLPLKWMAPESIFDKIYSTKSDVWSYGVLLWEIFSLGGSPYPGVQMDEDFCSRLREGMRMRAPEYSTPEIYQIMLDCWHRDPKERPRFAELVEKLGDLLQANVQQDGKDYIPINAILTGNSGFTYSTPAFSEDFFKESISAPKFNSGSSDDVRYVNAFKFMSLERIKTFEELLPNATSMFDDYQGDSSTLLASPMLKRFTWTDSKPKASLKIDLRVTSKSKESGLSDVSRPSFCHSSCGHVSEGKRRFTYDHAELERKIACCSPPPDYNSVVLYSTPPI

Sequence	% activity (266 human kinases [1])	% activity (266 human kinases [2])	% activity (266 human kinases [3])	% activity (266 human kinases [4])	% activity (266 human kinases [5])	% activity (266 human kinases [6])	% activity (266 human kinases [7])	% activity (266 human kinases [8])	% activity (266 human kinases [9])	% activity (266 human kinases [10])	% activity (266 human kinases [11])	% activity (266 human kinases [12]; activated)	% activity (266 human kinases [13])	% activity (266 human kinases [12])
HRRIKAWLKKIKALARQLGVAA (mammal) [MMI-0500]	27%	64%	15%	93%	46%	2%	3%	46%	-1%	23%	25%	45%	3%	
YARAAARQARAKALNRQLGVA (mammal) [MMI-0200]	96%	97%	110%	83%	120%	85%	100%	98%	71%	100%	71%	94%	53%	49%
